System: MS2 coat protein
Experiment: apparent KD of MS2 coat protein; designed switch direction (-1 OFF switch, 1 ON switch): -1; higher = weaker reporter binding
Procedure, shortened: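 Designed RNA switches sharing common flanks were transcribed on Illumina chips by stalled E. coli RNA polymerase. They were titrated with SNAP-549-labelled MS2 coat protein, from 0.7 or 1.5 nM doubling to 3 µM, in Tris-HCl pH 7.5 buffer with KCl, MgCl2, BSA, DTT, tRNA and Tween-20. Titrations ran without input, with 200 uM small-molecule ligand, or with an oligonucleotide input. The apparent KD of each design is the median over its clusters, after curve-fitting of normalised cluster fluorescence.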

[1] = input ligand: microRNA oligo, concentration not stated
[2] = Eterna round: R95, input ligand: microRNA oligo, concentration not stated
[3] = Eterna round: R95, input ligand: FMN 200 uM
[4] = Eterna round: R95, input ligand: none

Sequence | apparent KD of MS2 coat protein (input ligand: FMN 200 uM) [nM] | apparent KD of MS2 coat protein [1] [nM] | apparent KD of MS2 coat protein (input ligand: none) [nM] | apparent KD of MS2 coat protein [2] [nM] | apparent KD of MS2 coat protein [3] [nM] | apparent KD of MS2 coat protein [4] [nM]
CUUGUUUAUGUAGGAUAUGCCUGGCGUGCCUUUGCAGAAGGACAUGAGGAUCACCCAUGUAACAUGAGGCUCACCCAUGUCGCG [salish99_ExNG1_r04_105] (Eterna round: R96, puzzle: Exclusion NG 1) | 293 | 213 | 327 | – | – | –
CCUCCACAUGAGGAUCACCCAUGUCAGGAUAUCGUGCGCGCGUUUUCGGUCUUUCGCGCGAGAAGGGACGACUG (puzzle: Exclusion 1) | – | – | – | 24.1 | – | –
UAGUUAUUCACAGGAUAUCGCCUCUUAUUACAUGAGGAUCACCCAUGUUUAUUUUGUUACAUGUUCGAGAAGGGUGUAGUCUUU [JR_ExcNG2_Sub046] (Eterna round: R96, puzzle: Exclusion NG 2) | 439 | 436 | 535 | – | – | –
UCCUAACAUGAGGAUCACCCAUGUCAGGAUAUCUACGUCAGAACCACGUAUGUAGGCGAGAGAAGGGACAGAGG [EX1 C.14] (Eterna round: R97, puzzle: Exclusion 1) | 21 | – | 17.4 | – | – | –
UGUUGUUACGCAGGAUAUUGUCAACAGGCAGUAGGAUAUCCGAAAGGAGAAGGACCGCCAACAGGCGAGAAGGGCGGGUUAACA [pwkr exNG2 2xF7 2xFMN.7] (Eterna round: R96, puzzle: Exclusion NG 2) | 369 | 167 | 323 | – | – | –
UAUGGUUAAGUCAGGAUAUACAAACAGAAAUCUGAGUAGAAGGGACAUGAGGAUCACCCAUGUAUGGUAGUGUU [Ex4 #56] (Eterna round: R97, puzzle: Brourd's mod of Exclusion 4) | 48.6 | – | 44.6 | – | – | –
AUCGUGCAGCUUUGCUGUACGAGUACAUGAGGAUCACCCAUGUAGGAUAUGGUACGCUUUGCGUGCUAGAAGGAUAUGUGUUAG [EX ENG3 1.43] (Eterna round: R96, puzzle: Exclusion NG 3) | 46.6 | 34.8 | 44.2 | – | – | –
AAAUCGUGAGGAUAUCCAAUAUAUGACAUGAGGAUCACCCAUGUUUCCACUCGUACCUCCGGAGAAGGCACAAUAA [Ex5 #75] (Eterna round: R97, puzzle: Exclusion 5) | 27.2 | – | 27.1 | – | – | –
CCGACGUGAGGAUAUUAGAACGAGCAGACCUGAGCUCGUUCUGAGAAGGCACAUGAGGAUCACCCAUGUGAGAA [Eternabot (Original) Solution 50] (Eterna round: R97, puzzle: Exclusion 4) | 352 | – | 31.4 | – | – | –
ACAUGUAAUGUAGGAUAUUUUACACAUGAGGAUCACCCAUGUGACCGGAGGCUUUACUAUGAGUAAGAGAAGGGUAUGUACAUG [Ex NG2 #62] (Eterna round: R96, puzzle: Exclusion NG 2) | 90.5 | 56.6 | 86.7 | – | – | –
AGUCGGUCAGGAUAUGCAGACGUAGACAUGAGGAUCACCCAUGUGACGUGGGCCUGGUUUGUAGAAGGGACGAGCA [EX5 #83] (Eterna round: R97, puzzle: Exclusion 5) | 30.2 | – | 19.3 | – | – | –
UAGGAGUCAGGAUAUGCGAGAGAUGGAAGAAAGGGAAGAGAGCAGAAGGGACAUGAGGAUCACCCAUGUAAGGA [JR_Exclu4_Sub090] (puzzle: Exclusion 4) | – | – | – | 35.7 | 34.2 | 36.1
CAGCUGUGAGGAUAUACAUGAGGAUCACCCAUGUUAAGGAAGUGGUGUAUAUUGUAGUGUAGAAGGCACUUGUC [JR_Ex3_Sub026] (Eterna round: R97, puzzle: Exclusion 3) | 234 | – | 123 | – | – | –
AUAUAGAUAGUCAGGAUAUGCUAGUGAUAACAGUAGCAGAAGGGACAUGAGGAUCACCCAUGUGGAUAGCGCAC [Brourd's EX4 #5] (Eterna round: R97, puzzle: Brourd's mod of Exclusion 4) | 139 | – | 39.7 | – | – | –
UUAUUAAAUGUAGGAUAUGCAUAUUAUUAUUAUGCAGAAGGACAUGAGGAUCACCCAUGUAUAUUAUUAUUAUUUAUUAUUUAU [Title] (Eterna round: R96, puzzle: Exclusion NG 1) | – | 35.5 | – | – | – | –
AGGUGACAUGAGGAUCACCCAUGUAAGGAUAUACGGUUAGUGGAGAGUUGGAGGAGAGGUAGAAGGUACGGAGC [JR_Exclu1_Sub060] (puzzle: Exclusion 1) | – | – | – | 174 | – | –
AAGAUGUCAGGAUAUUAGUAGUAAAUAAAUAAAAUUAUUACUGAGAAGGGACAUGAGGAUCACCCAUGUGCCUU [Salish 062 v10] (Eterna round: R97, puzzle: Exclusion 4) | 16.4 | – | 16.9 | – | – | –
GUCAGCUCGUCAGGAUAUGCACAUGAGGAUCACCCAUGUAAGAUCAAGCUGCUUCGGCAGCAAGUGCAGAAGGGACGAGCUGAC [ENG2/9-B1] (Eterna round: R96, puzzle: Exclusion NG 2) | 161 | 229 | 140 | – | – | –
CUGCUCCGUGUAGGAUAUGCAUACUCCCAUUAUGCAGAAGGACAUGAGGAUCACCCAUGUAUGUUAUUAUCAUGUGUUGCAUGC [Design 11] (Eterna round: R96, puzzle: Exclusion NG 1) | 164 | 33.9 | 37.3 | – | – | –
UAAAGUAUAUAGGAUAUCUAGCUGGAUACAGCUAGAGAAGGAUGUACAUGAGGAUCACCCAUGUAGAUCUCAAA [Ex6/15-A1] (Eterna round: R97, puzzle: Exclusion 6) | 17.4 | – | 14.8 | – | – | –
AACCUAAGGCAUAGCUUUAGGUUUACAUGAGGAUCACCCAUGUAGGAUAUGGUAGGCAUAGCUUACCAGAAGGACAUGAAAAUU [Mat - Exclusion NG 3 - Mod of JL - D31] (Eterna round: R96, puzzle: Exclusion NG 3) | 240 | 46.8 | 46.1 | – | – | –
GCGAAAGCAAGCAAGUGAAACAUGAGGAUCACCCAUGUACUCAUUUGCUCGUCUUGUAAGCUAUGCGAAAGCAUAGC [Mat - Sensor v3 - turn-off var 1 - Eli Mod - D51] (puzzle: Sensor v3, turn-off variant 1) | – | – | – | 9.67 | 10.7 | 9.72
CUGCUCCGUGUAGGAUAUGCAUAUUCCCAUUAUGCAGAAGGACAUGAGGAUCACCCAUGUAUGUUAUUAUCAUGUGUUACAUGC [Design 9] (Eterna round: R96, puzzle: Exclusion NG 1) | 203 | 24.9 | 33.2 | – | – | –
AGUACUAACACGAAAGUGUUAGUACAAUAAGCUUGUGGAACAUGAGGAUCACCCAUGUCCUCAUAAGCUCGUCUUAU [JL-sv3-2.12 mat747 mod] (puzzle: Sensor v3, turn-off variant 2) | – | – | – | 71.4 | 16.8 | 16.9
CGUUACUACAAGCUUUGGGACAUGAGGAUCACCCAUGUUCGUCUUAUUGUAGUAGGUACGCUGACGUACCUACUACU [JL-sv1-2.10 Brourd mod] (puzzle: Sensor v3, turn-off variant 1) | – | – | – | 29 | 15.6 | 13.9
UAAAAGGGAGGAUAUACUUGAGGAUCACCCAAGUGAUCCAGACCCUGAACGGUCUAUAGUAGAAGGCCCAAUAA [Teinma] (Eterna round: R97, puzzle: Exclusion 3) | 152 | – | 58 | – | – | –
AAGAAGCAAGGAUAUACAGAGGAGAGUAAAGCAAGAGGAGAACAUGAGGAUCACCCAUGUAGAAGGUGCAGAGA [JR_Exclu2_Sub018] (puzzle: Exclusion 2) | – | – | – | 20.3 | 40.3 | 29.1
UCUGCUUUAGGAUAUACGAGAUCCUGCGAUGUACUCUUCGGACAUGAGGAUCACCCAUGUAGAAGGAAAGCAGG [Eternabot (L2) Solution 20] (Eterna round: R97, puzzle: Exclusion 2) | 96.4 | – | 12.2 | – | – | –
GUACAGGUAGGAUAUCGAUACAAGAACAUGAGGAUCACCCAUGUGGGUCGAUUUUCGAAGCGAGAAGGACCAAAUG [Rixeatenso] (puzzle: Exclusion 5) | – | – | – | 132 | 406 | 145
CGGUACUGAGGAUAUACAUGAGGAUCACCCAUGUGUUCUAGCUAGCGUACUGGCAUUUGUAGAAGGCGGUGCUG [JL-ex3-3.23 Brourd mod] (puzzle: Exclusion 3) | – | – | – | 16.4 | – | –
